What was measured:
Test in all cases: holdup assay
Set-up in all cases: key: below the threshold = too weak to quantify, mostly under pKd 3.1 to 4
LAP2, Q96RT1 = target: LAP2, Q96RT1
GIPC2, Q8TF65 = target: GIPC2, Q8TF65
DLG3_2, Q92796 = target: T1, DLG3_2, Q92796
T1 sequence (Q92796 221-321, limits assumed, looked up): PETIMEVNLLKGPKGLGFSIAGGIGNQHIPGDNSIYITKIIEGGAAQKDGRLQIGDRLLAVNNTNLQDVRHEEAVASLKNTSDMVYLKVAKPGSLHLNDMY

MAGI2_4, Q86UL8 = target: MAGI2_4, Q86UL8
FRMPD2_2, Q68DX3 = target: FRMPD2_2, Q68DX3
FRMPD2_2, Q68DX3, sequence (Q68DX3 944-1038): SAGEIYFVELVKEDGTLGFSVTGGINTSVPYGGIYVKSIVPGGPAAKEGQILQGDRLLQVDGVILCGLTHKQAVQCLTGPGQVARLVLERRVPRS

TJP1_2, Q07157 = target: TJP1_2, Q07157
TJP1_2, Q07157, sequence (Q07157 181-274): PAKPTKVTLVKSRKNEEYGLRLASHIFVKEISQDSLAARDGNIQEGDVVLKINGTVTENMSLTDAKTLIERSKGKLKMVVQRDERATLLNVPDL

Inadl_6, Q8NI35 = target: Inadl_6, Q8NI35
Inadl_6, Q8NI35, sequence (Q8NI35 1058-1167): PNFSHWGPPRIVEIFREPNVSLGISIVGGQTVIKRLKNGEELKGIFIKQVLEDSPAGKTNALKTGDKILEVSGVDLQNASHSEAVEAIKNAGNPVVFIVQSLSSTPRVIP

DFNB31_1, Q9P202 = target: T2, DFNB31_1, Q9P202
T2 sequence (Q9P202 135-233, limits assumed, looked up): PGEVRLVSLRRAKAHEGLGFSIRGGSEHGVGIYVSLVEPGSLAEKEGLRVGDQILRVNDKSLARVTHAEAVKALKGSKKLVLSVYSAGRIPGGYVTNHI

PCLO, Q9Y6V0 = target: T3, PCLO, Q9Y6V0
T3 sequence (Q9Y6V0 4491-4600, limits assumed, looked up): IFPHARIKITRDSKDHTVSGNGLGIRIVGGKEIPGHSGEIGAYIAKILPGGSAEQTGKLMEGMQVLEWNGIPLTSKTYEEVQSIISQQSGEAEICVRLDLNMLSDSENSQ

CASK, O14936 = target: CASK, O14936
CASK, O14936, sequence (O14936 487-570): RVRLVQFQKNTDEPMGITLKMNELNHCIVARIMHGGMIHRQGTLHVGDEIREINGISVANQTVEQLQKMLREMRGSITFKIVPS

PTPN13_1, Q12923 = target: T4, PTPN13_1, Q12923
T4 sequence (Q12923 1088-1188, limits assumed, looked up): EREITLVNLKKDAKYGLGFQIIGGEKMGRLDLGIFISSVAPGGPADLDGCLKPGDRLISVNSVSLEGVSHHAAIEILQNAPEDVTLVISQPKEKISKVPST

MPP6, Q9NZW5 = target: T5, MPP6, Q9NZW5
T5 sequence (Q9NZW5 125-219, limits assumed, looked up): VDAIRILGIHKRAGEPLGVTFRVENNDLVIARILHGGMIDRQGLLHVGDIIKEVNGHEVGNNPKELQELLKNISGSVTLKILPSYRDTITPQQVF

Inadl_4, Q8NI35 = target: Inadl_4, Q8NI35
Inadl_4, Q8NI35, sequence (Q8NI35 547-651): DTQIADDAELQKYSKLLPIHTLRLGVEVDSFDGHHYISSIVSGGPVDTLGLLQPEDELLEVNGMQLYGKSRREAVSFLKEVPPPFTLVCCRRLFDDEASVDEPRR

PARD3B_1, Q8TEW8 = target: T6, PARD3B_1, Q8TEW8
T6 sequence (Q8TEW8 196-299, limits assumed, looked up): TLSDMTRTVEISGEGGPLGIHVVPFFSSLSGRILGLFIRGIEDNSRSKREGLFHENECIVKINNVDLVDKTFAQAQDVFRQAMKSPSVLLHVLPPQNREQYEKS

FRMPD2_3, Q68DX3 = target: FRMPD2_3, Q68DX3
FRMPD2_3, Q68DX3, sequence (Q68DX3 1073-1166): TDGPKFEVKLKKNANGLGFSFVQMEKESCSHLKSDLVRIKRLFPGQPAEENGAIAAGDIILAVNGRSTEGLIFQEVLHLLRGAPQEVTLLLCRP

DLG1_2, Q12959 = target: DLG1_2, Q12959
DLG1_2, Q12959, sequence (Q12959 314-412): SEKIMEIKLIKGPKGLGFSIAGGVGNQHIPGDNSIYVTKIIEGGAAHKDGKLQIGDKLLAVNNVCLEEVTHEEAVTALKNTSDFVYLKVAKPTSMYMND

APBA1_2, Q02410 = target: T7, APBA1_2, Q02410
T7 sequence (Q02410 742-832, limits assumed, looked up): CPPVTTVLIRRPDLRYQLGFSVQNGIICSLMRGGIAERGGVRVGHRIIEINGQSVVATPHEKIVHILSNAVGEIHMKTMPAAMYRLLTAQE

NHERF2_2, Q15599 = target: NHERF2_2, Q15599
NHERF2_2, Q15599, sequence (Q15599 142-238): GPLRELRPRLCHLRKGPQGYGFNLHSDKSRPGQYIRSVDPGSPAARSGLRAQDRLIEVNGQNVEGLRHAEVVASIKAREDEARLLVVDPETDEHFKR

GRIP1_4, Q9Y3R0 = target: T8, GRIP1_4, Q9Y3R0
T8 sequence (Q9Y3R0 467-571, limits assumed, looked up): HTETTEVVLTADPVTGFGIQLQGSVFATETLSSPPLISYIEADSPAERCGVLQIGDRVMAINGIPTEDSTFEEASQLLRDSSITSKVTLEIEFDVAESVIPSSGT

APBA3_1, O96018 = target: T9, APBA3_1, O96018
T9 sequence (O96018 389-490, limits assumed, looked up): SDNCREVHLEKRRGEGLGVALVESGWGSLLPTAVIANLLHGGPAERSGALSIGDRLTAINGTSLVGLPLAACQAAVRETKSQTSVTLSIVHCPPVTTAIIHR

GRIP1_3, Q9Y3R0 = target: T10, GRIP1_3, Q9Y3R0
T10 sequence (Q9Y3R0 247-346, limits assumed, looked up): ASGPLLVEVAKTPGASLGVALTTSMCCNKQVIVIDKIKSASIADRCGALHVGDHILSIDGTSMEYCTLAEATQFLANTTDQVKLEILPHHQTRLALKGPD

SHANK1, Q9Y566 = target: T11, SHANK1, Q9Y566
T11 sequence (Q9Y566 658-767, limits assumed, looked up): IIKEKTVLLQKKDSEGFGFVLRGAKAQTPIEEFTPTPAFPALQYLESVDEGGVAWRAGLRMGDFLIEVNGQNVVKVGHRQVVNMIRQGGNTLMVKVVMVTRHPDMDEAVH

MPDZ_12, O75970 = target: T12, MPDZ_12, O75970
T12 sequence (O75970 1857-1958, limits assumed, looked up): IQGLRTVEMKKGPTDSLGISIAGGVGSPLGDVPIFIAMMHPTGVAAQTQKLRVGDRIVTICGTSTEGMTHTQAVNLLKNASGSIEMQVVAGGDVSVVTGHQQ

PDZD7_3, Q9H5P4 = target: T13, PDZD7_3, Q9H5P4
T13 sequence (Q9H5P4 857-944, limits assumed, looked up): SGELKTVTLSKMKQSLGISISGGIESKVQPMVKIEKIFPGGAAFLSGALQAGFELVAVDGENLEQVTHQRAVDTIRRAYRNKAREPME

[1] = plain residues with an end cap or a label only (N-terminal biotin on a linker: ttds)
[2] = plain residues with an end cap or a label only (N-terminal biotin on a linker: ahx)

MAGI2_4, Q86UL8, sequence (Q86UL8 772-865): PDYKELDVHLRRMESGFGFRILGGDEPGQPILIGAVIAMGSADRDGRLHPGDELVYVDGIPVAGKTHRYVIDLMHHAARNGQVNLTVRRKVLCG
GIPC2, Q8TF65, sequence (Q8TF65 112-203): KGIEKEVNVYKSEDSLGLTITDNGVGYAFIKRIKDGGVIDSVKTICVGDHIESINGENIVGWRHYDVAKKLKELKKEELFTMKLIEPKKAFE
LAP2, Q96RT1, sequence (Q96RT1 other isoform, or with tags, fused parts or gaps): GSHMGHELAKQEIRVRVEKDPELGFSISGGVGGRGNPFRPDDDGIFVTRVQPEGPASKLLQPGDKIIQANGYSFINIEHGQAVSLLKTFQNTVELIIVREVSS

## QRQARSETLV [HPV59-E6, Q81964]
LAP2, Q96RT1; [1]
  pKd: below the threshold
GIPC2, Q8TF65; [1]
  pKd: below the threshold
DLG3_2, Q92796; [1]
  pKd: 5.17
MAGI2_4, Q86UL8; [1]
  pKd: 5.71
FRMPD2_2, Q68DX3; [1]
  pKd: 3.95
TJP1_2, Q07157; [1]
  pKd: below the threshold
Inadl_6, Q8NI35; [1]
  pKd: below the threshold
DFNB31_1, Q9P202; [1]
  pKd: below the threshold
PCLO, Q9Y6V0; [1]
  pKd: below the threshold
CASK, O14936; [1]
  pKd: below the threshold
PTPN13_1, Q12923; [1]
  pKd: below the threshold
MPP6, Q9NZW5; [1]
  pKd: below the threshold
Inadl_4, Q8NI35; [1]
  pKd: below the threshold
PARD3B_1, Q8TEW8; [1]
  pKd: below the threshold
FRMPD2_3, Q68DX3; [1]
  pKd: below the threshold
DLG1_2, Q12959; [1]
  pKd: 5.56
APBA1_2, Q02410; [1]
  pKd: below the threshold
NHERF2_2, Q15599; [1]
  pKd: below the threshold
GRIP1_4, Q9Y3R0; [1]
  pKd: below the threshold
APBA3_1, O96018; [1]
  pKd: below the threshold
GRIP1_3, Q9Y3R0; [1]
  pKd: below the threshold
SHANK1, Q9Y566; [1]
  pKd: below the threshold
MPDZ_12, O75970; [1]
  pKd: below the threshold
PDZD7_3, Q9H5P4; [1]
  pKd: 4.72

## ESLLLGPSNF [SHROOM4, Q9ULL8]
LAP2, Q96RT1; [2]
  pKd: below the threshold
GIPC2, Q8TF65; [2]
  pKd: below the threshold
DLG3_2, Q92796; [2]
  pKd: below the threshold
MAGI2_4, Q86UL8; [2]
  pKd: below the threshold
FRMPD2_2, Q68DX3; [2]
  pKd: below the threshold
TJP1_2, Q07157; [2]
  pKd: below the threshold
Inadl_6, Q8NI35; [2]
  pKd: below the threshold
DFNB31_1, Q9P202; [2]
  pKd: below the threshold
PCLO, Q9Y6V0; [2]
  pKd: below the threshold
CASK, O14936; [2]
  pKd: below the threshold
PTPN13_1, Q12923; [2]
  pKd: below the threshold
MPP6, Q9NZW5; [2]
  pKd: below the threshold
Inadl_4, Q8NI35; [2]
  pKd: below the threshold
PARD3B_1, Q8TEW8; [2]
  pKd: below the threshold
FRMPD2_3, Q68DX3; [2]
  pKd: below the threshold
DLG1_2, Q12959; [2]
  pKd: below the threshold
APBA1_2, Q02410; [2]
  pKd: below the threshold
NHERF2_2, Q15599; [2]
  pKd: below the threshold
GRIP1_4, Q9Y3R0; [2]
  pKd: below the threshold
APBA3_1, O96018; [2]
  pKd: below the threshold
GRIP1_3, Q9Y3R0; [2]
  pKd: below the threshold
SHANK1, Q9Y566; [2]
  pKd: 3.53
MPDZ_12, O75970; [2]
  pKd: below the threshold
PDZD7_3, Q9H5P4; [2]
  pKd: below the threshold

## RHTTSTETAV [HPV30-E6, P36809]
LAP2, Q96RT1; [1]
  pKd: 4.46
GIPC2, Q8TF65; [1]
  pKd: 3.96
DLG3_2, Q92796; [1]
  pKd: 5.41
MAGI2_4, Q86UL8; [1]
  pKd: 4.07
FRMPD2_2, Q68DX3; [1]
  pKd: 4.23
TJP1_2, Q07157; [1]
  pKd: below the threshold
Inadl_6, Q8NI35; [1]
  pKd: below the threshold
DFNB31_1, Q9P202; [1]
  pKd: 4.27
PCLO, Q9Y6V0; [1]
  pKd: below the threshold
CASK, O14936; [1]
  pKd: below the threshold
PTPN13_1, Q12923; [1]
  pKd: below the threshold
MPP6, Q9NZW5; [1]
  pKd: below the threshold
Inadl_4, Q8NI35; [1]
  pKd: below the threshold
PARD3B_1, Q8TEW8; [1]
  pKd: below the threshold
FRMPD2_3, Q68DX3; [1]
  pKd: 3.87
DLG1_2, Q12959; [1]
  pKd: 5.63
APBA1_2, Q02410; [1]
  pKd: 4.23
NHERF2_2, Q15599; [1]
  pKd: below the threshold
GRIP1_4, Q9Y3R0; [1]
  pKd: below the threshold
APBA3_1, O96018; [1]
  pKd: below the threshold
GRIP1_3, Q9Y3R0; [1]
  pKd: below the threshold
SHANK1, Q9Y566; [1]
  pKd: 3.73
MPDZ_12, O75970; [1]
  pKd: below the threshold
PDZD7_3, Q9H5P4; [1]
  pKd: 4.1

Reference: PMC9482650, “Quantitative fragmentomics allow affinity mapping of interactomes” (Nature Communications, 2022)
